Biological target: T1, GST-AfWRKY20 (Amorpha fruticosa, UniProt A0A8K1R274 1-585)
T1 sequence: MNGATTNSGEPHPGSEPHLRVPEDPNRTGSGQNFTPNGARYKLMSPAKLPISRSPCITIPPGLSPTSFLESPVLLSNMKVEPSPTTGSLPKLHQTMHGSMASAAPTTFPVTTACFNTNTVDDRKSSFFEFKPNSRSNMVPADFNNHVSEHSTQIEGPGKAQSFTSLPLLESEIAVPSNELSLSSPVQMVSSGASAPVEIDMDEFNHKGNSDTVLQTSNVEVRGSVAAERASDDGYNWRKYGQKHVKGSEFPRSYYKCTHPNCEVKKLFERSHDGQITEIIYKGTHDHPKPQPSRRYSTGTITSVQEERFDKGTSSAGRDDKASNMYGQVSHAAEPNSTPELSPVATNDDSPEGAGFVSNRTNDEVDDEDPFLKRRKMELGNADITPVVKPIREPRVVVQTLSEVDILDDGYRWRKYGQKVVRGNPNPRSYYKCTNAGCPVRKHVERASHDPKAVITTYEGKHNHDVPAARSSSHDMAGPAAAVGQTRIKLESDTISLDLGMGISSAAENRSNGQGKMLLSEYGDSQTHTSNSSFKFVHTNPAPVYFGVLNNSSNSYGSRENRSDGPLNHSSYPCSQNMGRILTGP
Assay: EMSA; unlabeled Cold-Pr competitor weakened the shift; EMSA kit (Biyuntian/Beyotime) per instructions; buffer, salt, pH and temperature not stated
Settings: protein: recombinant; tags: GST; blunt as designed; printed strands are not exact complements (F has GGAAC / GGGC, complement of R has GGAC / GGGGC; possible misprint)

B1: W-box probe (Biotin-Pr) (dsDNA)
DNA 1: GGAACTTGACCTTGACCTTAGGGCTGCAGGAATTCG
DNA 2: CGAATTCCTGCAGCCCCTAAGGTCAAGGTCAAGTCC
binding result: binds
